Among the data in PMC3569735 are Kd values, retold here.

Usually Kd stands for the free concentration of one partner at which half of the binding sites on the other are occupied at equilibrium, for simple one-to-one binding.

The target of one assay is V1–V2 bnAb PG9 (human). Description: SPR. (In SPR one partner is held on a chip, and binding of the other changes the refractive index at the surface.)
For the next assay, the target named is mAb CH59 (human). Description: SPR.

Turning to AE.A244 gp120Δ11 (natural protein), the figures for the dissociation constant (Kd) in the assay with V1–V2 bnAb PG9 (human) and with mAb CH59 (human) were 42.1 nM and 2.2 nM, respectively.
